Test results taken from paper doi:10.1101/2024.03.27.587050.

Columns and labels:
[1] = target: Chaetomium thermophilum NAT10 (CtNAT10), E.coli produced recombinant (Chaetomium thermophilum); test: mass photometry
[2] = target: Chaetomium thermophilum NAT10 (CtNAT10), Sf9 produced recombinant (Chaetomium thermophilum); test: mass photometry

Substance: Chaetomium thermophilum NAT10 (CtNAT10), E.coli produced recombinant (enzyme)
- stoichiometry N [1]: 2

Substance: Chaetomium thermophilum NAT10 (CtNAT10), Sf9 produced recombinant (enzyme)
- stoichiometry N [2]: 2
